# Measured values from patent US20230037815A1 (CULLINAN THERAPEUTICS, published 2023).
# Residue numbers refer to the chain shown, from its start.
# T1: human CD19 (human, UniProt P15391 20-291, biotinylated in the Biacore assay of Table 11)
# T1 construct: also called isolated CD19; Human CD19 Protein
# T1 sequence (looked up): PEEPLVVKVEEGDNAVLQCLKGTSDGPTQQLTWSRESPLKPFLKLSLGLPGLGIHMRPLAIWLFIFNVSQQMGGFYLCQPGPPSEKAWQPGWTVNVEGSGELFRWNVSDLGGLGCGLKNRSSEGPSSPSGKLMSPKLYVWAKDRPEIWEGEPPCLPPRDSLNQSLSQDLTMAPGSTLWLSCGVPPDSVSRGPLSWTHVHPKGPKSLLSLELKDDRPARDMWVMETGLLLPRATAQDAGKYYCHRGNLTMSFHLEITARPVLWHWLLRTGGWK
# T2: monomeric CD19 extracellular domain (UniProt P15391 20-291, limits assumed)
# T2 construct: extracellular domain; also called monomeric CD19 protein
# T2 sequence (looked up): T1 sequence (looked up)
# T3: dimeric CD19 extracellular domain fused with human IgG1 Fc (human, UniProt P15391 20-291, limits assumed)
# T3 construct: extracellular domain; also called dimeric CD19 protein; not shown: human IgG1 Fc
# T3 sequence (looked up): T1 sequence (looked up)
# B1: CNG-CD3-2 scFv construct (scFv)
# scFv: DIVMTQSPDSLAVSLGERATINCKSSQSLLNARTGKNYLAWYQQKPGQPPKLLIYWASTRESGVPDRFSGSGSGTDFTLTISSLQAEDVAVYYCKQSYSRRTFGGGTKVEIKGGGGSGGGGSGGGGSGGGGSQVQLVQSGAEVKKPGASVKVSCKASGFNIKDYYMHWVRQAPGQRLEWMGWIDLENANTIYDAKFQGRVTITRDTSASTAYMELSSLRSEDTAVYYCARDQYGRYFYDVWGQGTLVTVSS
# B2: CNG-CD3-3 scFv construct (scFv)
# scFv: B1 scFv with R100L, N187E, A188G, Q232A
# B3: CNG-HSA-111 (VHH)
# VHH: KVQLVESGGGLVQPGGSLRLSCAASGFTFSSFGMSWVRQAPGKGLEWVSSISGSGSDTLYADSVEGRFTISRDNSKNTLYLQMNSLRAEDTAVYYCTIGGSLKQSSQGTLVTVSS
# B4: CNG-HSA-102 (VHH)
# VHH: B3 VHH with V5L, E65R, A88P, K103S, Q104P
# B5: CNG-HSA-112 (VHH)
# VHH: B3 VHH with V5L, S30P, E65K, S75A, N77T, A88P, L102V, K103S, Q104K, Q107R
# B6: CNG-HSA-113 (VHH)
# VHH: B3 VHH with K1G, V5L, S54T, E65K, A88P, K103R, Q104Y
# B7: CNG-HSA-116 (VHH)
# VHH: B3 VHH with L45P, E65K, K103R, Q104A
# B8: CNG-CD19-707 VL-VH scFv (scFv)
# scFv: EIVLTQSPATLSLSPGERATLSCSASSSVGYMHWYQQKPGQAPRLLIYDTSKLASGIPARFSGSGSGTDFTLTISSLEPEDFAVYYCFQGSVYPFTFGQGTKLEIKGGGGSGGGGSGGGGSQVQLQESGPGLVKPSQTLSLTCTVSGGSISTSTMGVGWIRQHPGKGLEWIGFIWWDDDKRYNPNLKSRVTMSVDTSKNQFSLKLSSVTAADTAVYYCARMELWSYYFDPWGQGTLVTVSS
# B9: CNG-CD19-701 VL-VH scFv (scFv)
# scFv: B8 scFv with P230Y
# B10: CNG-CD19-710 VL-VH scFv (scFv)
# scFv: B8 scFv with V29F, G30S, G148V, T154S, F173H, I174A, N185A, M192I
# B11: CNG-CD19-101 VL-VH scFv (scFv)
# scFv: DIVMTQTPLSLSVTPGQPASISCKSSQSLETTTGTTYLNWYLQKPGQSPQLLIYRASKRFSGVPDRFSGSGSGTDFTLKISRVEAEDVGVYYCLQLLEDPYTFGQGTKLEIKGGGGSGGGGSGGGGSQVQLVQSGAEVKKPGASVKVSCKASGYDFTDYIMHWVRQAPGQGLEWMGYINPYNDGSKYTDKFQERVTMTSDTSISTAYMELSRLRSDDTAVYYCARGTYYYGPELFDYWGQGTTVTVSS
# notes: scFv without the engineered disulfide
# B12: CNG-CD19-103 VL-VH scFv (scFv)
# scFv: B11 scFv with T32A, A56V, K58R, T102S, D155T, D189E, E193G, E233Q
# B13: CNG-CD19-707 VL-VH scFv with disulfide bond (scFv)
# chain: B8 scFv with Q99C, G167C
# B14: CNG-CD19-710 VL-VH scFv with disulfide bond (scFv)
# chain: B8 scFv with V29F, G30S, Q99C, G148V, T154S, G167C, F173H, I174A, N185A, M192I
# B15: CNG-CD19-701 VL-VH scFv with disulfide bond (scFv)
# chain: B8 scFv with Q99C, G167C, P230Y
# B16: CNG-CD19-103 VL-VH scFv with disulfide bond (scFv)
# chain: B11 scFv with T32A, A56V, K58R, T102S, Q105C, D155T, G171C, D189E, E193G, E233Q
# B17: CNG-CD19-101 VL-VH scFv with disulfide bond (scFv)
# scFv: B11 scFv with Q105C, G171C
# notes: Cys at position 44 of VH and 100 of VL already in the entry; also called scFv with Cys substitutions
# B18: SEQ ID NO 18 (scFv)
# scFv: QVQLQESGPGLVKPSQTLSLTCTVSGGSISTSGMGVGWIRQHPGKGLEWIGHIWWDDDKRYNPALKSRVTISVDTSKNQFSLKLSSVTAADTAVYYCARMELWSYYFDYWGQGTLVTVSSGGGGSGGGGSGGGGSEIVLTQSPATLSLSPGERATLSCSASSSVSYMHWYQQKPGQAPRLLIYDTSKLASGIPARFSGSGSGTDFTLTISSLEPEDFAVYYCFQGSVYPFTFGQGTKLEIKR
# notes: its limits are my reading; also called anti-CD19 scFv of tAb0033 to tAb0038
# B19: SEQ ID NO 9 (scFv)
# scFv: QVQLVQSGAEVKKPGASVKVSCKASGYTFTDYIMHWVRQAPGQGLEWMGYINPYNDGSKYTEKFQGRVTMTSDTSISTAYMELSRLRSDDTAVYYCARGTYYYGPQLFDYWGQGTTVTVSSGGGGSGGGGSGGGGSDIVMTQTPLSLSVTPGQPASISCKSSQSLETSTGTTYLNWYLQKPGQSPQLLIYRVSKRFSGVPDRFSGSGSGTDFTLKISRVEAEDVGVYYCLQLLEDPYTFGQGTKLEIK
# notes: its limits are my reading; also called anti-CD19 scFv of tAb0027 to tAb0032
# Biological target: human CD3 (human)
# Assay: BLI, Octet method of WO2018208864A1
# human CD3 (human), sequence (chain, as listed by the source): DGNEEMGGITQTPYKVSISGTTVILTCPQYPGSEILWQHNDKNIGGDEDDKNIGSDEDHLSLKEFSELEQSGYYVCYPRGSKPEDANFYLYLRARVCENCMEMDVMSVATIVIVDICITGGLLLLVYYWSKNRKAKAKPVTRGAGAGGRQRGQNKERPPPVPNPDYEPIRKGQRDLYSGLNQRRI
row,Binder,Kd [nM]
1,B1,27
2,B2,54

# Biological target: human CD3 (human)
# Assay: SPR, BiaCore method of WO2018208864A1
row,Binder,Kd [nM]
1,B1,16
2,B2,26

# Biological target: T4, human serum albumin (human, UniProt P02768 25-609)
# T4 construct: also called HSA
# Assay: Octet HTX (ForteBio), HCAb on AHC sensor, 1:1 fit
Binder,Kd [nM],koff [s⁻¹]
B3,8.35,0.00117
B4,4.89,0.000748
B5,8.45,0.00136
B6,15.4,0.00214
B7,4.65,0.000699

# Biological target: cynomolgus serum albumin (cynomolgus, UniProt A2V9Z4 25-608)
# Assay: Octet HTX (ForteBio), HCAb on AHC sensor, 1:1 fit
# cynomolgus serum albumin, sequence (A2V9Z4 25-608 limits assumed): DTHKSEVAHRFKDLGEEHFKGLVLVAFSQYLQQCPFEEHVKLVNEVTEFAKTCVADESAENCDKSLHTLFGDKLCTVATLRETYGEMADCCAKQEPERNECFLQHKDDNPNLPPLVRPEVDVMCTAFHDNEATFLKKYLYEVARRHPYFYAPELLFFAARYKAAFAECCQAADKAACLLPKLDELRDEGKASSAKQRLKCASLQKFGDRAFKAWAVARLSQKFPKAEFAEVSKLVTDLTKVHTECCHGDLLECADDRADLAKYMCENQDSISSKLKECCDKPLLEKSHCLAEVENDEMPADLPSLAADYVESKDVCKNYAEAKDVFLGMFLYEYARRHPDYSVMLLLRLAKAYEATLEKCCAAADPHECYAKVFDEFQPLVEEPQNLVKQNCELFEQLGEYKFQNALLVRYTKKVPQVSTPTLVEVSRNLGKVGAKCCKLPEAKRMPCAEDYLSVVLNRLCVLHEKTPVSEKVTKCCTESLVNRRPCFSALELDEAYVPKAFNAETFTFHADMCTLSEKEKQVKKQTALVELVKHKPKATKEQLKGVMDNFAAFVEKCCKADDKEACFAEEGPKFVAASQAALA
Binder,Kd [nM],koff [s⁻¹]
B3,6.13,0.000884
B4,3.65,0.000568
B5,7.43,0.00115
B6,12.1,0.0017
B7,3.85,0.000597

# Biological target: T5, mouse serum albumin (mouse, UniProt P07724 25-608)
# T5 construct: also called MSA
# Assay: Octet HTX (ForteBio), HCAb on AHC sensor, 1:1 fit
# T5 sequence (P07724 25-608 limits assumed): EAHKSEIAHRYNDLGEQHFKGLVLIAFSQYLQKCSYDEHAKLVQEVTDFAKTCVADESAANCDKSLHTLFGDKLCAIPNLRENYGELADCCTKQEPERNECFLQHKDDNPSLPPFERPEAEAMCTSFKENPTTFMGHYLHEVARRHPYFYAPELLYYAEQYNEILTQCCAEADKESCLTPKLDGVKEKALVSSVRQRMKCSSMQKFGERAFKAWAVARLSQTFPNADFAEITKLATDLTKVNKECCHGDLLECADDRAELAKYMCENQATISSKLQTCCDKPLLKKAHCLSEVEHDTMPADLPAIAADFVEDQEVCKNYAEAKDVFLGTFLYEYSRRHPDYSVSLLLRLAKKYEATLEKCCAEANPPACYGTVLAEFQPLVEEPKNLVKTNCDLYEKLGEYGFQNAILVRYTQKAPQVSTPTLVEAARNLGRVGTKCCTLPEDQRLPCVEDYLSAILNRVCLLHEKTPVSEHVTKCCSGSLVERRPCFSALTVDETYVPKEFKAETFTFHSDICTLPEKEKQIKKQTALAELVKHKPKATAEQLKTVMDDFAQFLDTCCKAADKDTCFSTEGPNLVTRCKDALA
Binder,Kd [nM],koff [s⁻¹]
B3,10.2,0.00231
B4,41.4,0.00738
B5,66.7,0.013
B6,52,0.0101
B7,4.56,0.00108

# Biological target: protein A (UniProt P38507 37-327)
# Assay: Octet HTX (ForteBio), HCAb on AHC sensor, 1:1 fit
Binder,Kd [nM],koff [s⁻¹]
B3,2.84,0.0002
B4,1.7,0.0002
B5,3.44,0.000375
B6,1.7,0.0002
B7,1.75,0.0002

# Biological target: T1, human CD19
# Assay: SPR Biacore 8K, captured biotinylated CD19, scFv analyte
# Procedure: (§1) Additional kinetic analysis of the anti-CD19 VL-VH scFvs, with or without a disulfide bond introduced by Cys substitutions at position 44 of VH and position 100 of VL, was conducted by surface plasmon resonance (SPR). The scFv proteins were serially diluted and assessed at 25° C. in a HBS-EP+ running buffer system (10 mM HEPES pH 7.4, 150 mM NaCl, 3 mM EDTA, 0.05% Surfactant P20) using a Biacore 8K optical biosensor (Global Life Sciences Solutions USA, Marlborough, Mass.). The sample compartment was maintained at 10° C. for the duration of each experiment.
# (§2) Each experiment cycle began with an injection (500 s at 2 μL/min) over flow cells 1 and 2 of a 1:20 solution of biotin CAPture reagent (Global Life Sciences Solutions USA) in running buffer. This was followed by an injection (300 s at 4.0 μL/min) of biotinylated CD-19 (40 nM) overflow cell 2. Upon capture of CD19 to the sensor surface, test scFvs (16.2 to 0.067 nM, 3-fold dilution in running buffer) was injected (300 s at 30 uL/min) over flow cells 1 and 2. The dissociation of the scFvs was monitored for a duration of 2564 s. Finally, an injection (90 s at 10 μL/min) of regeneration solution (6 M Guanidine-HCl in 0.25 M NaOH) overflow cells 1 and 2 was used to prepare the sensor surface for another cycle.
Binder,Kd [nM],koff [s⁻¹]
B8,0.0122,2e-05
B9,0.0148,2e-05
B10,0.0218,2e-05
B11,0.00673,2e-05
B12,0.00991,2.41e-05

# Biological target: T5, mouse serum albumin
# Assay: ratio of the Octet KD for mouse serum albumin to that for human serum albumin
row,Binder,Ratio of MSA-KD to HSA-KD
1,B3,1.23
2,B4,8.46
3,B5,7.9
4,B6,3.38
5,B7,0.98

# Biological target: T1, human CD19
# Assay: SPR Biacore 8K, captured biotinylated CD19, scFv with disulfide bond as analyte
# Procedure: as §1, §2
Binder,Kd [nM],koff [s⁻¹]
B13,0.0117,2e-05
B14,0.0213,2.54e-05
B15,0.0141,2e-05
B16,0.0178,4.85e-05
B17,0.0139,4.88e-05

# Biological target: T2, monomeric CD19 extracellular domain
# Assay: ForteBio instrument (called SPR in the text), monomeric CD19 extracellular domain; monomeric CD19 protein
# Procedure: (§3) As noted above, some of the constructs produced contained an anti-CD19 scFv having the amino acid sequence set forth in SEQ ID NO: 9 or 18. The binding affinity of the two CD19 binding domains to CD19 were measured by SPR using a monomeric CD19 extracellular domain and a dimeric CD19 extracellular domain fused with human IgG1 Fc. Binding kinetic parameters were measured using a ForteBio instrument generally as previously described (see, Estep et al. (2013) MAbs, 5(2): 270-78).
row,Binder,Kd [nM]
1,B18,11
2,B19,7

# Biological target: T3, dimeric CD19 extracellular domain fused …
# Assay: ForteBio instrument (called SPR in the text), dimeric CD19 extracellular domain-human IgG1 Fc; dimeric CD19 extracellular domain fused with human IgG1 Fc
# Procedure: as §3
row,Binder,Kd [nM]
1,B18,15
2,B19,5
